This is an account of results in US20230399400A1 (I MAB BIOPHARMA, published 2023).

For assay [1], the target named is T1, biotinylated CD47 IgV protein (Acrobiosystems) (human, UniProt Q08722 19-139, biotinylated (site not stated)).
T1 construct: domain: IgV; Bought from Acrobiosystems; also called biotinylated human CD47-IgV domain; Biotinylated CD47 protein
In words: ELISA, biotinylated CD47 protein (monomeric CD47-ECD) coated at 1 µg/mL, antibody titration. How it is done: Biotinylated CD47 protein (Acrobiosystems) was coated at 1 μg/mL in PBS onto microtiter plates for 2 hours at RT. After coating of antigen, the wells were blocked with PBS/0.05% Tween (PBST) with 1% BSA for 1 hour at RT. After washing of the wells with PBST, different concentrations of anti-CD47 antibodies were added to the wells and incubated for 1 hour at RT. For detection of the binding of the antibodies to CD47, the HRP conjugated secondary antibodies against human Fc (Jackson Immuno Research) were added followed by the addition of fluorogenic substrates (Roche). Between all incubation steps, the wells of the plate were washed with PBST three times. Fluorescence was measured in a TECAN Spectrafluor plate reader.
Background: ELISA stands for enzyme-linked immunosorbent assay.

Assay [2] has as its target T2, human CD47 (hCD47) expressed on the surface of cells (human, UniProt Q08722 19-323).
T2 construct: whole, on cells; also called CD47+ Raji cells; CD47 on tumor cell lines
In words: Flow cytometry on Raji cells endogenously expressing human CD47. The method, then: Raji cells, which endogenously express human CD47 on the surface, were stained with different concentrations of anti-CD47 antibodies at 4° C. for 30 minutes. Then, the cells were washed with PBS three times, followed by incubation with APC-labeled anti-human Fc specific antibody (Invitrogen) at 4° C. for 30 minutes. Binding was measured using a FACSCanto (Becton-Dickinson).

In assay [3] the target is T3, Recombinant human CD47 IgV-Fc fusion protein (Acrobiosystems) (human, UniProt Q08722 19-139).
T3 construct: domain: IgV; Bought from Acrobiosystems; also called hCD47 IgV-Fc fusion protein; Recombinant CD47-Fc fusion protein
The assay can be described thus: Competition ELISA: CD47-Fc coated, SIRPα-His 1 µg/mL as the blocked ligand, antibody titration. How it is done: Recombinant CD47-Fc fusion protein (Acrobiosystems) was coated at 1 μg/ml in PBS onto microtiter plates for 16 hours at 4° C. […] Plates were subsequently washed three times and incubated with an HRP-conjugated anti-His secondary antibody for 1 hour at RT. After washing, the TMB solution was added to each well for 30 min and the reaction was stopped with 2M H₂SO₄, and OD was measured at […].

What is called EC50 is the concentration needed to bring the measured effect to its halfway point.

B1: anti-CD47 antibody B2B (antibody, human IgG4 S228P, kappa, V domains shown)
VH: EVQLVESGGGLVKPGGSLRLSCAASGLTFERAWMNWVRQAPGKGLEWVGRIKRKTDGETTDYAAPVKGRFSISRDDSKNTLYLQMNSLKTEDTAVYYCAGSNRAFDIWGQGTMVTVSS
VL: DIVMTQSPDSLAVSLGERATINCKSSQSVLYAGNNRNYLAWYQQKPGQPPKLLINQASTRASGVPDRFSGSGSGTEFTLIISSLQAEDVAIYYCQQYYTPPLAFGGGTKLEIKR
notes: also called lemzoparlimab; TJ011133
Turning to B1, the EC50 in assay [1] worked out at 0.09 nM; in assay [2], 0.12 nM; in assay [3], 0.18 nM.

B2: reference anti-CD47 antibody 2A1 (antibody, V domains shown)
VH: EVQLQQSGAELVRSGASVKLSCTASGFNIKDYYLHWVKQRPEQGLEWIGWIDPDNGDTEFAPKFQGKATMTADTSSNTAYLQLSSLTSEDTAVYYCNAAYGSSSYPMDYWGQGTSVTV
VL: DIKMTQSPSSLYASLGERVTITCKASQDIHRYLSWFQQKPGKSPKILIYRANRLVDGVPSRFSGSGSGQDYSLTISSLEYEDMGIYYCLQYDEFPYTFGGGTKLEMK
As to B2, in assay [1], a half-maximal effect (EC50) was put at 0.25 nM.
